Assay results taken from US20060275803A1, “Rat and mouse members of the CRISP family of genes” (Wyeth, priority 2005, published 2006).

Key:
[1] = target: T1, substrate peptide A01 (WQGGRRKF) (not fully specified)
T1 chain: WQGGRRKF

[2] = target: T2, substrate peptide A04 (RGARARLG) (not fully specified)
T2 chain: RGARARLG

[3] = target: T3, substrate peptide A05 (SYRKVLGQ) (not fully specified)
T3 chain: SYRKVLGQ

[4] = target: T4, substrate peptide A09 (RMRRYADA) (not fully specified)
T4 chain: RMRRYADA

[5] = target: T5, substrate peptide A10 (SAARPAPP) (not fully specified)
T5 chain: SAARPAPP

[6] = target: T6, substrate peptide B11 (AAGVAPLS) (not fully specified)
T6 chain: AAGVAPLS

[7] = target: T7, substrate peptide B17 (RQRYGKRS) (not fully specified)
T7 chain: RQRYGKRS

[8] = target: T8, substrate peptide B20 (PQRFGRNT) (not fully specified)
T8 chain: PQRFGRNT

[9] = target: T9, substrate peptide B22 (APQRFGKK) (not fully specified)
T9 chain: APQRFGKK

[10] = target: T10, substrate peptide B23 (RVKRYRQS) (not fully specified)
T10 chain: RVKRYRQS

[11] = target: T11, substrate peptide C01 (GPQGLLGA) (not fully specified)
T11 chain: GPQGLLGA

[12] = target: T12, substrate peptide C16 (RVLGLKAH) (not fully specified)
T12 chain: RVLGLKAH

[13] = target: T13, substrate peptide C23 (RDAQAHPG) (not fully specified)
T13 chain: RDAQAHPG

[14] = target: T14, substrate peptide D06 (ALAEAMKK) (not fully specified)
T14 chain: ALAEAMKK

[15] = target: T15, substrate peptide E19 (RLGREGVQ) (not fully specified)
T15 chain: RLGREGVQ

[16] = target: T16, substrate peptide G24 (RRKRSTRE) (not fully specified)
T16 chain: RRKRSTRE

[17] = target: T17, substrate peptide H01 (RKKRSTKK) (not fully specified)
T17 chain: RKKRSTKK

[18] = target: T18, substrate peptide H02 (RAKRSVHF) (not fully specified)
T18 chain: RAKRSVHF

[19] = target: T19, substrate peptide H03 (RNKRAVQG) (not fully specified)
T19 chain: RNKRAVQG

[20] = target: T20, substrate peptide H07 (RVKRQVRS) (not fully specified)
T20 chain: RVKRQVRS

[21] = target: T21, substrate peptide H11 (RRLLRAIP) (not fully specified)
T21 chain: RRLLRAIP

[22] = target: T22, substrate peptide H17 (NGLRADPM) (not fully specified)
T22 chain: NGLRADPM

[23] = target: T23, substrate peptide J03 (PQLHSTGG) (not fully specified)
T23 chain: PQLHSTGG

[24] = target: T24, substrate peptide J21 (LRNRAQSG) (not fully specified)
T24 chain: LRNRAQSG

[25] = target: T25, substrate peptide K11 (VIPRSGGS) (not fully specified)
T25 chain: VIPRSGGS

[26] = target: T26, substrate peptide L16 (KTPRWGG) (not fully specified)
T26 chain: KTPRWGG

[27] = target: T27, substrate peptide M02 (EKQRIIGG) (not fully specified)
T27 chain: EKQRIIGG

[28] = target: T28, substrate peptide M07 (GLQRALEI) (not fully specified)
T28 chain: GLQRALEI

[29] = target: T29, substrate peptide M09 (GSQHIRAE) (not fully specified)
T29 chain: GSQHIRAE

[30] = target: T30, substrate peptide M16 (RSRREADL) (not fully specified)
T30 chain: RSRREADL

[31] = target: T31, substrate peptide M18 (VHRDMAAR) (not fully specified)
T31 chain: VHRDMAAR

[32] = target: T32, substrate peptide N05 (RARRELAP) (not fully specified)
T32 chain: RARRELAP

[33] = target: T33, substrate peptide N08 (RKRRAPLA) (not fully specified)
T33 chain: RKRRAPLA

[34] = target: T34, substrate peptide N10 (FYRADQPR) (not fully specified)
T34 chain: FYRADQPR

[35] = target: T35, substrate peptide N12 (AKRAASQI) (not fully specified)
T35 chain: AKRAASQI

[36] = target: T36, substrate peptide N17 (RKRRAVLT) (not fully specified)
T36 chain: RKRRAVLT

[37] = target: T37, substrate peptide O16 (AATRRQAV) (not fully specified)
T37 chain: AATRRQAV

[38] = target: T38, substrate peptide O22 (GGVRGPRV) (not fully specified)
T38 chain: GGVRGPRV

[39] = target: T39, substrate peptide O23 (KNVAMQKG) (not fully specified)
T39 chain: KNVAMQKG

substrate peptide = assay: Protease activity of rCRISPA purified with or without the sialidase inhibitor DANA; assay type: biochemical, rat
Excerpt: The conservation of protease activity between CRISPA and CRISPC is predicted from both the primary amino acid sequence of the PR-1 domain and the overall domain structure conserved among Tex31 and all mammalian CRISPs. The PR-1 domain of Tex31 is hypothesized to contain a basic substrate recognition site with the predicted catalytic residues His130 and Glu115. The mammalian CRISPs have these residues conserved in the PR-1 domain. […] A sialylated glycan on rCRISPA may be influencing the protein's native confirmation and ability to recognize, bind, or cleave its substrate. If rat CRISPC is glycosylated and sialylated, the glycan may also be involved in the protein's confirmation and ability to recognize, bind, or cleave its substrate.
A protocol for the purification of rCRISPA (rCRISP1) from the epididymis was published in 1997 (Hall J. C. & Tubbs C. E., Prep. Biochem. Biotechnol. 27:239-51 (1997), incorporated herein by reference). Applicants have modified this protocol to include the following amounts of 2,3-dehydro-2-deoxy-N-acetyineuraminic acid (DANA) as an inhibitor of sialidase activity in each of the following buffers:
Protease activity was determined by measuring fluorescence (as per the manufacturer's protocol) at ten minute intervals for 130 minutes in the following assay conditions: […] substrate peptide, […] rCRISPA, 100 mM NaCl, 25 mM Tris-Cl, pH 7.5. […]

B1: native rCRISPA (rCRISP1) purified from epididymis in the presence of DANA (protein)
chain: QDTTDEWDRDLENLSTTKLSVQEEIINKHNQLRRTVSPSGSDLLRVEWDHDAYVNAQKWANRCIYNHSPLQHRTTTLKCGENLFMANYPASWSSVIQDWYDESLDFVFGFGPKKVGVKVGHYTQVVWNSTFLVACGVAECPDQPLKYFYVCHYCPGGNYVGRLYSPYTEGEPCDSCPGNCEDGLCTNSCEYEDNYSNCGDLKKMVSCDDPLLKEGCRASCFCEDKIH
[1]
  protease activity (fluorescence of substrate peptide): Uncleaved peptides A01 (WQGGRRKF)
[2]
  protease activity (fluorescence of substrate peptide): Cleaved peptides A04 (RGARARLG)
[3]
  protease activity (fluorescence of substrate peptide): Uncleaved peptides A05 (SYRKVLGQ)
[4]
  protease activity (fluorescence of substrate peptide): Cleaved peptides A09 (RMRRYADA)
[5]
  protease activity (fluorescence of substrate peptide): Uncleaved peptides A10 (SAARPAPP)
[6]
  protease activity (fluorescence of substrate peptide): Uncleaved peptides B11 (AAGVAPLS)
[7]
  protease activity (fluorescence of substrate peptide): Cleaved peptides B17 (RQRYGKRS)
[8]
  protease activity (fluorescence of substrate peptide): Cleaved peptides B20 (PQRFGRNT)
[9]
  protease activity (fluorescence of substrate peptide): Cleaved peptides B22 (APQRFGKK)
[10]
  protease activity (fluorescence of substrate peptide): Cleaved peptides B23 (RVKRYRQS)
[11]
  protease activity (fluorescence of substrate peptide): Uncleaved peptides C01 (GPQGLLGA)
[12]
  protease activity (fluorescence of substrate peptide): Cleaved peptides C16 (RVLGLKAH)
[13]
  protease activity (fluorescence of substrate peptide): Uncleaved peptides C23 (RDAQAHPG)
[14]
  protease activity (fluorescence of substrate peptide): Uncleaved peptides D06 (ALAEAMKK)
[15]
  protease activity (fluorescence of substrate peptide): Uncleaved peptides E19 (RLGREGVQ)
[16]
  protease activity (fluorescence of substrate peptide): Cleaved peptides G24 (RRKRSTRE)
[17]
  protease activity (fluorescence of substrate peptide): Cleaved peptides H01 (RKKRSTKK)
[18]
  protease activity (fluorescence of substrate peptide): Uncleaved peptides H02 (RAKRSVHF)
[19]
  protease activity (fluorescence of substrate peptide): Cleaved peptides H03 (RNKRAVQG)
[20]
  protease activity (fluorescence of substrate peptide): Cleaved peptides H07 (RVKRQVRS)
[21]
  protease activity (fluorescence of substrate peptide): Cleaved peptides H11 (RRLLRAIP)
[22]
  protease activity (fluorescence of substrate peptide): Cleaved peptides H17 (NGLRADPM)
[23]
  protease activity (fluorescence of substrate peptide): Uncleaved peptides J03 (PQLHSTGG)
[24]
  protease activity (fluorescence of substrate peptide): Cleaved peptides J21 (LRNRAQSG)
[25]
  protease activity (fluorescence of substrate peptide): Uncleaved peptides K11 (VIPRSGGS)
[26]
  protease activity (fluorescence of substrate peptide): Uncleaved peptides L16 (KTPRWGG)
[27]
  protease activity (fluorescence of substrate peptide): Cleaved peptides M02 (EKQRIIGG)
[28]
  protease activity (fluorescence of substrate peptide): Uncleaved peptides M07 (GLQRALEI)
[29]
  protease activity (fluorescence of substrate peptide): Uncleaved peptides M09 (GSQHIRAE)
[30]
  protease activity (fluorescence of substrate peptide): Uncleaved peptides M16 (RSRREADL)
[31]
  protease activity (fluorescence of substrate peptide): Uncleaved peptides M18 (VHRDMAAR)
[32]
  protease activity (fluorescence of substrate peptide): Cleaved peptides N05 (RARRELAP)
[33]
  protease activity (fluorescence of substrate peptide): Cleaved peptides N08 (RKRRAPLA)
[34]
  protease activity (fluorescence of substrate peptide): Uncleaved peptides N10 (FYRADQPR)
[35]
  protease activity (fluorescence of substrate peptide): Cleaved peptides N12 (AKRAASQI)
[36]
  protease activity (fluorescence of substrate peptide): Cleaved peptides N17 (RKRRAVLT)
[37]
  protease activity (fluorescence of substrate peptide): Cleaved peptides O16 (AATRRQAV)
[38]
  protease activity (fluorescence of substrate peptide): Cleaved peptides O22 (GGVRGPRV)
[39]
  protease activity (fluorescence of substrate peptide): Cleaved peptides O23 (KNVAMQKG)
Substrate peptide; purified using known procedures without DANA present
  protease activity of rCRISPA: lacking protease activity
Substrate peptide; purified with DANA present
  protease activity of rCRISPA: with protease activity
